The record followed here is the supplement of paper PMC11246515.

This series can be described thus: total protein half-life in vivo (active degradation + dilution); higher = more stable protein.
Setting [1] is: E. coli NCM3722 delta-clpP delta-lon delta-hslV, growth: N-lim chemostat, doubling time 6 h.
Where [2] appears, read: E. coli NCM3722 delta-clpP, growth: N-lim chemostat, doubling time 6 h.
Setting [3] is: E. coli NCM3722 delta-hslV, growth: N-lim chemostat, doubling time 6 h.
[4] abbreviates: E. coli NCM3722 delta-lon, growth: N-lim chemostat, doubling time 6 h.
The mark [5] stands for this setting: E. coli NCM3722 delta-smpB, growth: N-lim chemostat, doubling time 6 h.
Where [6] appears, read: wild type E. coli NCM3722, growth: C-lim chemostat, doubling time 3 h.
Setting [7] is: wild type E. coli NCM3722, growth: C-lim chemostat, doubling time 6 h.
Setting [8] is: wild type E. coli NCM3722, growth: C-lim chemostat, doubling time 12 h.
The mark [9] stands for this setting: wild type E. coli NCM3722, growth: N-lim chemostat, doubling time 6 h.
Setting [10] is: wild type E. coli NCM3722, growth: N-lim chemostat, doubling time 12 h.
Where [11] appears, read: wild type E. coli NCM3722, growth: P-lim chemostat, doubling time 6 h.
The mark [12] stands for this setting: wild type E. coli NCM3722, growth: P-lim chemostat, doubling time 12 h.

± gives the standard deviation of the averaged measurements.

For the sequence “MGKTQPLPILITGGGRRIGLALAWHFINQKQPVIVSYRTHYPAIDGLINAGAQCIQADFSTNDGVMAFADEVLKSTHGLRAILHNASAWMAEKPGAPLADVLACMMQIHVNTPYLLNHALERLLRGHGHAASDIIHFTDYVVERGSDKHIAYAASKAALDNMTRSFARKLAPEVKVNSIAPSLILFNEHDDAEYRQQALNKSLMKTAPGEKEVIDLVDYLLTSCFVTGRSFPLDGGRHLR [P0AFS3]”, the “total protein half-life in vivo” value was determined as 5.23 ± 0.36 h under setting [1]; 5.33 ± 1.2 h under setting [2]; 5.31 ± 0.45 h under setting [3]; 5.6 ± 0.53 h under setting [4]; 4.85 ± 0.43 h under setting [5]; 3.124 ± 0.021 h under setting [6]. The “total protein half-life in vivo” value is, setting by setting: under setting [7], 5.67 ± 0.13 h; under setting [8], 11.5 ± 1 h; under setting [9], 5.32 ± 0.17 h; under setting [10], 9.17 ± 0.28 h; under setting [11], 5.56 ± 0.12 h; under setting [12], 12.3 ± 0.39 h.

For “MAWNQPGNNGQDRDPWGSSKPGGNSEGNGNKGGRDQGPPDLDDIFRKLSKKLGGLGGGKGTGSGGGSSSQGPRPQLGGRVVTIAAAAIVIIWAASGFYTIKEAERGVVTRFGKFSHLVEPGLNWKPTFIDEVKPVNVEAVRELAASGVMLTSDENVVRVEMNVQYRVTNPEKYLYSVTSPDDSLRQATDSALRGVIGKYTMDRILTEGRTVIRSDTQRELEETIRPYDMGITLLDVNFQAARPPEEVKAAFDDAIAARENEQQYIREAEAYTNEVQPRANGQAQRILEEARAYKAQTILEAQGEVARFAKLLPEYKAAPEITRERLYIETMEKVLGNTRKVLVNDKGGNLMVLPLDQMLKGGNAPAAKSDNGASNLLRLPPASSSTTSGASNTSSTSQGDIMDQRRANAQRNDYQRQGE [P0ABC7]”, the “total protein half-life in vivo” value is 7 ± 0.75 h under setting [1]; 6.71 ± 0.23 h under setting [3]; 6.55 ± 0.23 h under setting [4]; 6.38 ± 0.49 h under setting [5]; 2.99 ± 0.1 h under setting [6]; 6.35 ± 0.6 h under setting [7]. Besides, the “total protein half-life in vivo” value came to 13.1 ± 1 h under setting [8]; 6.52 ± 0.65 h under setting [9]; 13.8 ± 0.55 h under setting [10]; 6.06 ± 0.31 h under setting [11]; 13.98 ± 0.078 h under setting [12].

As to “MKQDLARIEQFLDALWLEKNLAENTLNAYRRDLSMMVEWLHHRGLTLATAQSDDLQALLAERLEGGYKATSSARLLSAVRRLFQYLYREKFREDDPSAHLASPKLPQRLPKDLSEAQVERLLQAPLIDQPLELRDKAMLEVLYATGLRVSELVGLTMSDISLRQGVVRVIGKGNKERLVPLGEEAVYWLETYLEHGRPWLLNGVSIDVLFPSQRAQQMTRQTFWHRIKHYAVLAGIDSEKLSPHVLRHAFATHLLNHGADLRVVQMLLGHSDLSTTQIYTHVATERLRQLHQQHHPRA [P0A8P8]”, the “total protein half-life in vivo” value under setting [1] came out at 5.75 ± 1.2 h; the “total protein half-life in vivo” value under setting [2] is 2.02 ± 0.045 h; the “total protein half-life in vivo” value under setting [3] was determined as 2.06 h; the “total protein half-life in vivo” value under setting [4] was determined as 4.89 ± 0.092 h; the “total protein half-life in vivo” value under setting [5] was found to be 2.04 ± 0.034 h; the “total protein half-life in vivo” value under setting [6] is 1.74 ± 0.27 h. For the same sequence, the “total protein half-life in vivo” value was 3.04 ± 0.085 h under setting [7]; 4.08 ± 0.66 h under setting [8]; 2.31 ± 0.2 h under setting [9]; 3.34 ± 0.29 h under setting [10]; 2.81 h under setting [12].

Consider “MTQQITLIKDKILSDNYFTLHNITYDLTRKDGEVIRHKREVYDRGNGATILLYNTKKKTVVLIRQFRVATWVNGNESGQLIESCAGLLDNDEPEVCIRKEAIEETGYEVGEVRKLFELYMSPGGVTELIHFFIAEYSDNQRANAGGGVEDEDIEVLELPFSQALEMIKTGEIRDGKTVLLLNYLQTSHLMD”, for which the “total protein half-life in vivo” value is 4.25 h under setting [1]; 3.023 ± 0.017 h under setting [2]; 2.96 ± 0.066 h under setting [3]; 4.03 ± 0.41 h under setting [4]; 3.07 ± 1 h under setting [5]; 2.824 ± 0.026 h under setting [6]. For the same sequence, the “total protein half-life in vivo” value is, setting by setting: under setting [7], 4.44 h; under setting [8], 6.27 ± 2.4 h; under setting [9], 3.15 ± 0.25 h; under setting [10], 4.71 h; under setting [11], 2.31 h; under setting [12], 4.47 ± 0.2 h.

For the sequence “MLTVIAEIRTRPGQHHRQAVLDQFAKIVPTVLKEEGCHGYAPMVDCAAGVSFQSMAPDSIVMIEQWESIAHLEAHLQTPHMKAYSEAVKGDVLEMNIRILQPGI [P0ADU2]”, the “total protein half-life in vivo” value runs as follows: under setting [1], 5.001 ± 0.017 h; under setting [3], 4.57 ± 0.38 h; under setting [4], 5.31 ± 0.5 h; under setting [5], 4.72 ± 0.06 h; under setting [6], 3.14 ± 0.34 h; under setting [7], 5.35 ± 0.099 h. The “total protein half-life in vivo” value by setting is: under setting [8], 10.4 ± 0.39 h; under setting [9], 4.36 ± 0.28 h; under setting [10], 7 ± 0.33 h; under setting [11], 5.84 ± 0.12 h; under setting [12], 11.6 ± 0.82 h.

On to “MNLLTVSTDLISIFLFTTLFLFFARKVAKKVGLVDKPNFRKRHQGLIPLVGGISVYAGICFTFGIVDYYIPHASLYLACAGVLVFIGALDDRFDISVKIRATIQAAVGIVMMVFGKLYLSSLGYIFGSWEMVLGPFGYFLTLFAVWAAINAFNMVDGIDGLLGGLSCVSFAAIGMILWFDGQTSLAIWCFAMIAAILPYIMLNLGILGRRYKVFMGDAGSTLIGFTVIWILLETTQGKTHPISPVTALWIIAIPLMDMVAIMYRRLRKGMSPFSPDRQHIHHLIMRAGFTSRQAFVLITLAAALLASIGVLAEYSHFVPEWVMLVLFLLAFFLYGYCIKRAWKVARFIKRVKRRLRRNRGGSPNLTK [P0AC78]”, for which the “total protein half-life in vivo” value under setting [2] was 6.35 h; the “total protein half-life in vivo” value under setting [3] was 5.89 ± 0.39 h; the “total protein half-life in vivo” value under setting [4] turned out to be 5.27 ± 0.83 h; the “total protein half-life in vivo” value under setting [5] amounted to 5.8 ± 0.18 h; the “total protein half-life in vivo” value under setting [6] stood at 3.68 ± 0.28 h; the “total protein half-life in vivo” value under setting [7] came to 5.75 h. Moreover, the “total protein half-life in vivo” value is, setting by setting: under setting [8], 11.8 ± 2.3 h; under setting [9], 6.03 h; under setting [10], 10.4 h; under setting [11], 6.33 ± 0.36 h.

For “MEFSVKSGSPEKQRSACIVVGVFEPRRLSPIAEQLDKISDGYISALLRRGELEGKPGQTLLLHHVPNVLSERILLIGCGKERELDERQYKQVIQKTINTLNDTGSMEAVCFLTELHVKGRNNYWKVRQAVETAKETLYSFDQLKTNKSEPRRPLRKMVFNVPTRRELTSGERAIQHGLAIAAGIKAAKDLGNMPPNICNAAYLASQARQLADSYSKNVITRVIGEQQMKELGMHSYLAVGQGSQNESLMSVIEYKGNASEDARPIVLVGKGLTFDSGGISIKPSEGMDEMKYDMCGAAAVYGVMRMVAELQLPINVIGVLAGCENMPGGRAYRPGDVLTTMSGQTVEVLNTDAEGRLVLCDVLTYVERFEPEAVIDVATLTGACVIALGHHITGLMANHNPLAHELIAASEQSGDRAWRLPLGDEYQEQLESNFADMANIGGRPGGAITAGCFLSRFTRKYNWAHLDIAGTAWRSGKAKGATGRPVALLAQFLLNRAGFNGEE”, the “total protein half-life in vivo” value reads like this: under setting [1], 6.37 ± 0.15 h; under setting [2], 6.34 ± 0.31 h; under setting [3], 6.11 ± 0.078 h; under setting [4], 7.01 ± 0.64 h; under setting [5], 5.81 ± 0.16 h; under setting [6], 3.38 ± 0.097 h. For the same sequence, the “total protein half-life in vivo” value turned out to be 6.45 ± 0.3 h under setting [7]; 11.7 ± 1 h under setting [8]; 6.215 ± 0.053 h under setting [9]; 12.7 ± 1.1 h under setting [10]; 6.33 ± 0.09 h under setting [11]; 12.7 ± 0.79 h under setting [12].
